Assay results from US20250340626A1 (INTERVET, published 2025).

T1: canine NGF receptor TrkA ECD-canine Fc fusion protein (canine)
T1 construct: also called cTrkA-ECD-IgG-B Fc fusion protein; canine TrkA-IgGBFc fusion protein
T1 chain: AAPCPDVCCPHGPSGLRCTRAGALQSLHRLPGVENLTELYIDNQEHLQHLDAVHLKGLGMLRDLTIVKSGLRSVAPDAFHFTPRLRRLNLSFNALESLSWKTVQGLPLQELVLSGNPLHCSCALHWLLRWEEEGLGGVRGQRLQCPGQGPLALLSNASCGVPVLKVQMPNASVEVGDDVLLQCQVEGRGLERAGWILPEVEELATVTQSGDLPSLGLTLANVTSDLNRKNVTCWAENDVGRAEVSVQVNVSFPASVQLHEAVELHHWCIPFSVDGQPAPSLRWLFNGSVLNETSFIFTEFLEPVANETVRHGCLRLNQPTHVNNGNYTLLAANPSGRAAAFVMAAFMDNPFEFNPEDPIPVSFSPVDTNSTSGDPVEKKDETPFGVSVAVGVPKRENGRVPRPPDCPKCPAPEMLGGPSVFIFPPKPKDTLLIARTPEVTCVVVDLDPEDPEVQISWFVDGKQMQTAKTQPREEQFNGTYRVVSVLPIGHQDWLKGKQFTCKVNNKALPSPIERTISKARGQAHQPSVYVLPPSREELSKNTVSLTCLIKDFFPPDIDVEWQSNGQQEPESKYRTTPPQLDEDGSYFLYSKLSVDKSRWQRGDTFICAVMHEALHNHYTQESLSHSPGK

B1: human-canine chimeric Fulranumab (antibody, V domains shown)
VH: EVQLVESGGGLVQPGGSLRLSCAASGFTLRSYSMNWVRQAPGKGLEWVSYISRSSHTIFYADSVKGRFTISRDNAKNSLYLQMDSLRDEDTAMYYCARVYSSGWHVSDYFDYWGQGILVTVSS
VL: AIQLTQSPSSLSASVGDRVTITCRASQGISSALAWYQQKPGKAPKLLIYDASSLESGVPSRFSGSGSGTDFTLTISSLQPEDFATYYCQQFNSYPLTFGGGTKVEIKR
notes: Human VH/VL of fulranumab fused to canine IgG-B constant regions and canine kappa constant region; expressed in HEK293, Protein A purified; also called Ful Chimeric; Ful Chim
B2: human-canine chimeric Fasinumab (antibody, V domains shown)
VH: QVQLVQSGAEVKKPGASVKVSCKVSGFTLTELSIHWVRQAPGKGLEWMGGFDPEDGETIYAQKFQGRVTMTEDTSTDTAYMELTSLRSEDTAVYYCSTIGVVTNFDNWGQGTLVTVSS
VL: DIQMTQSPSSLSASAGDRVTITCRASQAIRNDLGWYQQKPGKAPKRLIYAAFNLQSGVPSRFSGSGSGTEFTLTISSLQPEDLASYYCQQYNRYPWTFGQGTKVEIKR
notes: Human VH/VL of fasinumab fused to canine IgG-B constant regions and canine kappa constant region; also called Fas Chimeric; Fas Chim
B3: canine NGF (ligand)
chain: SSSHPVFHRGEFSVCDSVSVWVGDKTTATDIKGKEVMVLGEVNINNSVFKQYFFETKCRDPTPVDSGCRGIDSKHWNSYCTTTHTFVKALTMDGKQAAWRFIRIDTACVCVLSRKAGRRA
notes: also called canine Nerve Growth Factor; cNGF

How the values were obtained:
canine NGF = molecular target: B3; assay: ELISA, canine NGF coated, anti-dog IgG Fc-HRP detection
Procedure: The binding of chimeric and caninized antibodies to canine NGF was determined by ELISA as follows: [0132] 1. Coat 100 ng/well canine NGF in an immunoplate and incubate the plate at 4° C. overnight. [0133] 2. Wash the plate 3 times by PBS with 0.05% Tween 20 (PBST). [0134] 3. Block the plate by 0.5% BSA in PBS for 45-60 min at room temperature. [0135] 4. Wash the plate 3 times by PBST. [0136] 5. Make 3-fold dilution the antibodies in each column or row of dilution plate. [0137] 6. Transfer the diluted antibodies into each column or row of the immunoplate, and incubate the plate for 45-60 min at room temperature. [0138] 7. Wash the plate 3 times by PBST. [0139] 8. Add 1:2000 diluted horseradish peroxidase labeled anti-dog IgG Fc into each well of the plate and incubate the plate for 45-60 min at room temperature. [0140] 9. Wash the plate 3 times by PBST. [0141] 10. Add TMB Substrate into each well of the plate and incubate the plate for 10 to 15 min at room temperature for color development. [0142] 11. Add 100 μL of 1.5 M phosphoric acid into each well to stop the reaction. [0143] 12. Read the plate at 450 nm with 540 nm reference wavelength.

human TrkA on TF-1 cells = human TrkA on TF-1 cells (human, UniProt P04629 33-796); assay: cell-based or functional assay
Sequence of human TrkA on TF-1 cells (P04629 33-796): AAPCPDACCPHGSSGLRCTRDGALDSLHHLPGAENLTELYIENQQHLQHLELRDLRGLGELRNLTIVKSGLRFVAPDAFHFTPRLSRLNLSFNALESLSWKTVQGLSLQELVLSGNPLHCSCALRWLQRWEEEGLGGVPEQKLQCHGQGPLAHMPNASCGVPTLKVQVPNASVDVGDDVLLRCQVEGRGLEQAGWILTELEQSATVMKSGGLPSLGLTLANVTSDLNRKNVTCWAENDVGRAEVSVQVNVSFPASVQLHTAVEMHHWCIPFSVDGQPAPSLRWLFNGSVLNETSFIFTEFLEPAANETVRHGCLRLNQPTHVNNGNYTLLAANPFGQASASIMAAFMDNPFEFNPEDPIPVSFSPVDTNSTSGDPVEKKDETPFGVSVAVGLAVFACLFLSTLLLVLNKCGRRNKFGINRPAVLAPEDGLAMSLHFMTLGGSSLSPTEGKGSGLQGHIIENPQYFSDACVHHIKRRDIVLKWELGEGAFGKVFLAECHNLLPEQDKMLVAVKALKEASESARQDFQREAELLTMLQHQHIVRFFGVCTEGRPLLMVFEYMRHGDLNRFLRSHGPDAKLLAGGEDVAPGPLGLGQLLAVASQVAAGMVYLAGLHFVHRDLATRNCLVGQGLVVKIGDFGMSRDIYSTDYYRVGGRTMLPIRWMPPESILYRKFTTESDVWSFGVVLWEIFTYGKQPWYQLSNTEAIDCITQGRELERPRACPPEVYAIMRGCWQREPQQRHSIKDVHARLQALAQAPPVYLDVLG

[1] = molecular target: T1, canine NGF receptor TrkA ECD-canine Fc …; assay: ELISA, canine NGF on canine TrkA receptor

| Binder | EC50 (canine NGF) [nM] | TF-1 cell proliferation (CellTiter-Glo luminescence) EC50 (human TrkA on TF-1 cells) [nM] | EC50 [1] [nM] |
| --- | --- | --- | --- |
| B1 | 0.022 | – | – |
| B2 | 122 | – | – |
| B3 | – | 28 | 54 |
